Laboratory results from paper PMC6016253, “The ICP27 Homology Domain of the Human Cytomegalovirus Protein UL69 Adopts a Dimer-of-Dimers Structure” (mBio, 2018).

Target: the molecule itself
Experiment: SEC-MALS; 0.5 ml at 1 mg/ml on Superdex 200 10/300 GL, 0.75 ml/min; 20 mM HEPES, 150 mM NaCl, 50 mM L-Arg, 50 mM L-Glu, 1 mM TCEP, pH 7.9

Protein	stoichiometry N
UL69long (HCMV UL69 residues 200 to 540) (domain or fragment, UL69 of human cytomegalovirus (HCMV), 744 amino acids; residues 200 to 540: ICP27 homology domain plus an N-terminal region conserved only in betaherpesviruses; gene synthesis, codon optimized; HRV3C protease-cleavable N-terminal thioredoxin tag plus Strep-tag; also called UL69 tetramer; not shown: thioredoxin, N-terminal, cleaved) GPQQQQMLALIDDELDAMDEDELQQLSRLIEKKKRARLQRGAASSGTSPSSTSPVYDLQRYTAESLRLAPYPADLKVPTAFPQDHQPRGRILLSHDELMHTDYLLHIRQQFDWLEEPLLRKLVVEKIFAVYNAPNLHTLLAIIDETLSYMKYHHLHGLPVNPHDPYLETVGGMRQLLFNKLNNLDLGCILDHQDGWGDHCSTLKRLVKKPGQMSAWLRDDVCDLQKRPPETFSQPMHRAMAYVCSFSRVAVSLRRRALQVTGTPQFFDQFDTNNAMGTYRCGAVSDLILGALQCHECQNEMCELRIQRALAPYRFMIAYCPFDEQSLLDLTVFAGTTTTTA	4
UL69short (HCMV UL69 residues 248 to 536) (domain or fragment, UL69 of human cytomegalovirus (HCMV), 744 amino acids; residues 248 to 536: ICP27 homology domain only; gene synthesis, codon optimized; HRV3C protease-cleavable N-terminal thioredoxin tag plus Strep-tag; not shown: thioredoxin, N-terminal, cleaved) PSSTSPVYDLQRYTAESLRLAPYPADLKVPTAFPQDHQPRGRILLSHDELMHTDYLLHIRQQFDWLEEPLLRKLVVEKIFAVYNAPNLHTLLAIIDETLSYMKYHHLHGLPVNPHDPYLETVGGMRQLLFNKLNNLDLGCILDHQDGWGDHCSTLKRLVKKPGQMSAWLRDDVCDLQKRPPETFSQPMHRAMAYVCSFSRVAVSLRRRALQVTGTPQFFDQFDTNNAMGTYRCGAVSDLILGALQCHECQNEMCELRIQRALAPYRFMIAYCPFDEQSLLDLTVFAGTT	2
